In patent US20050234225A1:

Target: KDR-alkaline phosphatase (AP) soluble fusion protein (human) (UniProt P35968)
Test: BIAcore SPR, KDR immobilized

Chain of KDR-alkaline phosphatase (AP) soluble fusion protein (human) (P35968 20-764): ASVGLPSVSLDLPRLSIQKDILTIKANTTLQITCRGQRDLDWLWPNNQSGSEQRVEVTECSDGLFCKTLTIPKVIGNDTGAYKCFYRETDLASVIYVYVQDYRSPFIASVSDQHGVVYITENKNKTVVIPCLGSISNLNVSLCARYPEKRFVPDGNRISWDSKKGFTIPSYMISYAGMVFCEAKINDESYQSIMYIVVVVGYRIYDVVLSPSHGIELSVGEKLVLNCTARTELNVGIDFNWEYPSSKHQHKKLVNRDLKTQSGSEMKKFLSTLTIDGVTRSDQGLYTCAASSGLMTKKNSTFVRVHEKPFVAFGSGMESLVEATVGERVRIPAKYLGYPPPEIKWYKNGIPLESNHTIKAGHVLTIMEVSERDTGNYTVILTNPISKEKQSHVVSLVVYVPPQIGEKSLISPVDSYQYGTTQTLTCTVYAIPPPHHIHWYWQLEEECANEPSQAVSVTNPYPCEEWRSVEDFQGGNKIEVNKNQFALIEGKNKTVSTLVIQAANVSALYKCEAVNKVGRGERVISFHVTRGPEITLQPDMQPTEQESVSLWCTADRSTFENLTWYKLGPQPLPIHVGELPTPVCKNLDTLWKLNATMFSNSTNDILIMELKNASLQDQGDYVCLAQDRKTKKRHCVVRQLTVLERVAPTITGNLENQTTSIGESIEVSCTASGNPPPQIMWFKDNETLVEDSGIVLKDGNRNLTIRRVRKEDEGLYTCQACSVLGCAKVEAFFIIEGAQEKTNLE

Kd: 1.4 nM
koff: 0.0001 s⁻¹
kon: 77000 M⁻¹ s⁻¹
B1: p1C11 scFv (scFv, from another filing)
scFv: QVKLQQSGAELVGSGASVKLSCTTSGFNIKDFYMHWVKQRPEQGLEWIGWIDPENGDSDYAPKFQGKATMTADSSSNTAYLQLSSLTSEDTAVYYCNAYYGDYEGYWGQGTTVTVSSGGGGSGGGGSGGGGSDIELTQSPAIMSASPGEKVTITCSASSSVSYMHWFQQKPGTSPKLWIYSTSNLASGVPARFSGSGSGTSYSLTISRMEAEDAATYYCQQRSSYPFTFGSGTKLEIK
